In patent US10273305B2, “Bispecific CXCR4-CD4 polypeptides with potent anti-HIV activity” (Ablynx N.V., priority 2015, dated 2019):

Legend:
CXCR4 [1] = target: T1, CXCR4 (Homo sapiens, UniProt P61073); experiment: [125I]-CXCL12 radio-ligand displacement on membranes of HEK293 cells transfected with CXCR4; assay type: binding; conditions: 75 pM [125I]-CXCL12
Description: To this end, CXCR4 Nanobodies were analysed for their binding to HEK293T-CXCR4 cells, and their ability to compete with the ligand CXCL12 (or SDF-1a) for receptor binding in a radio-ligand displacement assay. The sequences of the respective CXCR4 Nanobodies are depicted in Table 3.1A.
Non-specific binding was determined in presence of 100 nM cold SDF-1. The assay was performed three times, and average percentages of SDF-1 inhibition and Ki values were calculated (Table 3.1B).

[2] = test system: HIV-1 CI#17 clinical isolate (clade B); experiment: HIV-1 CI#17 infection of PBMCs, p24; assay type: cell-based; conditions: PBMC, average 2 donors
[3] = test system: CXCR4-using (X4) HIV-1 clone NL4.3; experiment: microbe, parasite or virus in culture; assay type: cell-based; conditions: Example 10
[4] = target: interaction of CD4 with the viral gp120 protein (Homo sapiens, UniProt P01730); experiment: ELISA-based competition of CD4-gp120 interaction; assay type: binding; conditions: 500 nM Nanobody; gp120 HIV-1 IIIB
Description: Besides its role on T-cells, CD4 also serves as primary receptor for HIV entry. Therefore purified CD4 Nanobodies were analysed for the capacity to block the interaction of CD4 with the viral gp120 protein. Monovalent His-tagged Nanobodies were purified from periplasmic extracts by affinity and desalting chromatography and used in an ELISA-based competition setup. In short, 1 μg/ml of gp120 HIV-1 IIIB (Immunodiagnostic) was captured by 20 μg/ml of sheep anti-gp120 antibody D7324 (Aalto Bio Reagents) previously coated in 96 well Maxisorp microtiter plates (Nunc) and blocked with 1% casein in PBS. In parallel, 0.5 μg/ml of biotinylated CD4 was incubated with 500 nM of the different purified Nanobodies in 100 μl 0.1% Casein/PBS. After 1 hour, the biotinylated CD4-Nanobody pre-mixes were incubated 1 hour with the captured gp120. Bound biotinylated CD4 was detected using HRP-conjugated Extravidin (Sigma E2886). A blocking mouse anti-CD4 IgG2a antibody (Diaclone, clone B-A1 cat#854.030.000) was used as positive control. Blocking activity was determined as loss of O.D. signal, as compared to wells where no Nanobody was added.

CXCR4 [5] = target: T1, CXCR4; experiment: CXCL12-AF647 binding inhibition on SupT1 cells by flow cytometry; conditions: T-cells (SUPT-1); read-out: IC50 of blocking CXCL12AF647 binding to CXCR4
CXCR4 [6] = target: T1, CXCR4; experiment: Displacement of biotinylated SDF-1 on Caki cells expressing hCXCR4, flow cytometry; assay type: binding; conditions: 30 nM biotinylated SDF-1
Description: In addition, CXCR4 Nanobodies were analysed for ligand competition by displacement of biotinylated SDF-1 on transient transfected Caki cells expressing hCXCR4 in flow cytometry. To this end, serial dilutions of Nanobodies were pre-incubated with 30 nM of biotinylated SDF-1 (R&D Systems Fluorikine kit) and incubated to Caki-CXCR4 cells for 1 hour at 4C, after which ligand binding was visualised using extravidin-PE. The biotin-SDF-1 competitor concentration used in this assay was below the EC50 value obtained in dose-titration, where IC50 values should reflect the Ki. Ligand displacement IC50 values were calculated, and compared to the NL4.3 (X4) neutralization potencies.

T1 sequence (P61073 whole entry): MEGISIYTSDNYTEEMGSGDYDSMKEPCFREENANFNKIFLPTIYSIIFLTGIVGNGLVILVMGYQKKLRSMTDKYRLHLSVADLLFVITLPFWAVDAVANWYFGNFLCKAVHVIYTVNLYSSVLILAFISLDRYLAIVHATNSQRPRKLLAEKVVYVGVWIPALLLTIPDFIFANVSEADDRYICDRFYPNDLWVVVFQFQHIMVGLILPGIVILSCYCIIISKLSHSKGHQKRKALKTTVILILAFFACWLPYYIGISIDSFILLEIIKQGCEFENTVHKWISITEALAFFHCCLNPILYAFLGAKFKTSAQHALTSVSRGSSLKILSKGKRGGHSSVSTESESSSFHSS

Row | Molecule | [125I] SDF-1 displacement on CXCR4-Hek pKi +/SEM (n = 3) (CXCR4 [1]) | IC50 [2] | IC90 [2] | further results
1 | 281E10: anti-CXCR4 Nanobody, SEQ ID NO: 6 (protein, Nanobody Sequence) VHH: EVQLVESGGGLVQAGGSLRLSCKASGGTFNNYAMGWFRRAPGKEREFVAAITRSGVRSGVSAIYGDSVKDRFTISRDNVKNTLYLQMNTLKPEDTAVYTCAASAIGSGALRRFEYDYSGQGTQVTVSS | 9.21 +/− 0.12 | 1.3 nM | 8.1 nM | 
2 | 281A5: anti-CXCR4 Nanobody, SEQ ID NO: 5 (protein, Nanobody Sequence) VHH: EVQLVESGGGLVQAGGSLRLSCAASGRTFNNYAMGWFRRAPGKEREFVAAITRSGVRSGVSAIYGDSVKDRFTISRDNAKNTLYLQMNSLKPEDTAVYTCAASAIGSGALRRFEYDYSGQGTQVTVSS | 8.12 +/− 0.08 | 12 nM | > 57 nM | 
3 | 281A6: anti-CXCR4 Nanobody, SEQ ID NO: 8 (protein, Nanobody Sequence) VHH: EVQLVESGGGLVQTGGSLRLSCAASGGTFNNYAMGWFRRAPGKEREFVAAISRSGVRTGVSALYGDSVKDRFTISRDNAKNTLYLQMNKMKPEDTAVYTCAASAIGSGALRRFEYDSSGQGTQVTVSS | 8.63 +/− 0.02 | 20 nM | 61 nM | 
4 | 281D4: anti-CXCR4 Nanobody, SEQ ID NO: 7 (protein, Nanobody Sequence) VHH: EVQLVESGGGLVQAGGSLRLSCAASGGTFNNYAMGWFRRAPGKEREFVAAISRSGVRTGVSALYGDSVKDRFTISRDNAKNTLYLQMNKMKPEDTAVYTCAASAIGSGALRRFEYDSSGQGTQVTVSS | 8.27 +/− 0.05 | 15 nM | 33 nM | 
5 | 283B6: anti-CXCR4 Nanobody, SEQ ID NO: 10 (protein, Nanobody Sequence) VHH: EVQLVASGGGLVQAGGSLRLSCAVSGTTFSVATLGWYRQAPGQQRALVADISSGGSTNYADSVRGRFTISRDNAKNLAYLQMNSLKPEDTAVYYCNARTSGWRTRSNYWGQGTQVTVSS | 8.78 +/− 0.24 | 2.8 nM | 9.9 nM | 
6 | 283E2: anti-CXCR4 Nanobody, SEQ ID NO: 11 (protein, Nanobody Sequence) VHH: EVQLVESGGGLVQAGGSLRLSCAVSGTTFSVATLGWYRQAPGQQRALVADISSGGSTNYADSVRGRFTISRDNAKNLAYLQMNSLKPEDTAVYYCNARTSGWRTRSNYWGQGTQVTVSS | 8.29 +/− 0.11 | 3.7 nM |  | 
7 | 15A1: anti-CXCR4 Nanobody, SEQ ID NO: 15 (protein, Nanobody Sequence) VHH: EVQLVESGGGLVQAGGSLRLSCAASGRTFSRAAMGWFRQAPGKEREFVGCALSSAGSALTADSVKGRFTISRDNAKNMVYLQMNNLKPEDTAVYSCVAGGYCTRAGVYPYWGQGTQVTVSS |  |  |  | IC50 HIV1 neutralisation NL4.3 in MT-4 cells, panel of CXCR4 Nanobodies [3]: sub-nanoMolar range
8 | 01B6: anti-CD4 Nanobody, SEQ ID NO: 17 (protein, Nanobody Sequence) VHH: EVQLVESGGGLVQSGGSLRLSCAASGFTFSGYWMYWVRQAPGKGLEWVSAISPGGGSTYYPDSVKGRFTISRDNAKNTLYLQMNSLKPEDTALYYCASSLTATHTYEYDYWGQGTQVTVSS |  |  |  | blocking of in vitro interaction of CD4 with gp120 [4]: block
9 | 281F12-35GS-3F11: bispecific CXCR4-CD4 polypeptide, SEQ ID NO: 106 (protein, chains of the parent or of the whole protein) EVQLVESGGGLVQAGDSLRLSCAASGRAFSRYAMGWFRQAPGKEREFVAAIGWGPSKTNYADSVKGRFTISRDNAKNTVYLQMNTLKPEDTAVYSCAAKFVNTDSTWSRSEMYTYWGQGTQVTVSSGGGGSGGGGSGGGGSGGGGSGGGGSGGGGSGGGGSEVQLVESGGGSVQPGGSLTLSCGTSGRTFNVMGWFRQAPGKEREFVAAVRWSSTGIYYTQYADSVKSRFTISRDNAKNTVYLEMNSLKPEDTAVYYCAADTYNSNPARWDGYDFRGQGTQVTVSS |  |  |  | IC50 (CXCR4 [5]): 0.97 nM
10 | 15G11: anti-CXCR4 Nanobody, SEQ ID NO: 14 (protein, Nanobody Sequence) VHH: EVQLVESGGGLVQAGDSLRVSCAASGRTSSYAMAWFRQAPGKEREFVGTISRTNSRTKYADFVEGRFTISRDNAKSTLSLQMTSLKPEDTAVYYCAAKWTGNSYHDYTWSKVDEYNVWGQGTQVTVSS |  |  |  | ligand displacement to CXCR4 (CXCR4 [6]): hardly any ligand displacement
11 | 283F1: anti-CXCR4 Nanobody, SEQ ID NO: 12 (protein, Nanobody Sequence) VHH: EVQLVESGGGLVQAGGSLRLSCVASVNIFGSIAMAWYRQAPGKQRNLVASISSGGRINYADSRKGRFTISRDNTKNTVHLQMNSLEPEDTAVYYCAAGRIGQRTLTFTPDYWGQGTQVTVSS | 7.93 +/− 0.41 | 2 nM | 9.1 nM | 
